The values below come from publication PMC6810841.

For the experiment, the target named is BicDR1 E165R/E167K-GFP (mouse) (UniProt A0JNT9).
Sequence of UniProt A0JNT9 (A0JNT9 whole entry E165R/E167K): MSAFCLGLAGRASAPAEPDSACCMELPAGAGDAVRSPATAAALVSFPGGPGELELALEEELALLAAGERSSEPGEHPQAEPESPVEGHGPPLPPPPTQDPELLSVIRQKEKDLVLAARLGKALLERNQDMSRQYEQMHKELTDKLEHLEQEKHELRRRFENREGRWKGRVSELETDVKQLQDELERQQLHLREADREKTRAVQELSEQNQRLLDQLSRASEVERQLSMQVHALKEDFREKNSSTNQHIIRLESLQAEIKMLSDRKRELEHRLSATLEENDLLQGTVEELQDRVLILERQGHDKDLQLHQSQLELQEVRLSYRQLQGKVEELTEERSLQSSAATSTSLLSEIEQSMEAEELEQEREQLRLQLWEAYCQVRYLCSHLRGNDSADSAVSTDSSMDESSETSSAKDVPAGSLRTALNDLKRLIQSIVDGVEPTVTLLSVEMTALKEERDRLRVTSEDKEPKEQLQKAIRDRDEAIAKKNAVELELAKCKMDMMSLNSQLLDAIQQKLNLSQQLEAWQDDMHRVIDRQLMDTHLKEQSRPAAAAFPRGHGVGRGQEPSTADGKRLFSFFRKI

“dynein long tail (SNAP-DYNC1H1 1-1,074-GST with associated chains) (from UniProt Q14204;O43237;P63172;P63167;Q9NP97) (complex)”: the reduction of recruitment against BicDR1 was 50%.
